Source: patent publication US20230183713A1, “SITE-SPECIFIC RECOMBINASES FOR EFFICIENT AND SPECIFIC GENOME EDITING” (TECHNISCHE UNIVERSITÄt DRESDEN, published 2023)
Changes are numbered by the printed parent chain. Names and notes keep the numbering of the source.

How the values were obtained:
[1] = molecular target: T1, Cre recombinase monomer with W315L mutation
T1 chain: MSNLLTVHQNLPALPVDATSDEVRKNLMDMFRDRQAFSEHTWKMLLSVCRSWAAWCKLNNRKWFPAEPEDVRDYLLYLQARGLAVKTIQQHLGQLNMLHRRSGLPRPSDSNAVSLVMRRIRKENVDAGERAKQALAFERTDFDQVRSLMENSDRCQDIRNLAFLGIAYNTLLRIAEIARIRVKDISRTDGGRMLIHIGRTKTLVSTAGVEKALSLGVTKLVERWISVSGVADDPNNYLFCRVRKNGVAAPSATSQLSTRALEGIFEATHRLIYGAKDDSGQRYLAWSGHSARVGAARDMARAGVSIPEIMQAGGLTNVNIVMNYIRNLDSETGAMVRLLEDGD

[2] = molecular target: T2, Cre recombinase monomer with W315Q mutation
T2 chain: T1 chain with L315Q

[3] = molecular target: T3, Cre recombinase monomer with W315S mutation
T3 chain: T1 chain with L315S

[4] = molecular target: T4, Cre recombinase monomer with Y324C mutation
T4 chain: T1 chain with L315W, Y324C

[5] = molecular target: T5, Cre recombinase monomer with Y324I mutation
T5 chain: T1 chain with L315W, Y324I

[6] = molecular target: T6, Cre recombinase monomer with Y324T mutation
T6 chain: T1 chain with L315W, Y324T

[7] = molecular target: T7, Cre recombinase monomer with Y324V mutation
T7 chain: T1 chain with L315W, Y324V

[8] = molecular target: T8, Cre recombinase monomer with Y324W mutation
T8 chain: T1 chain with L315W, Y324W

B1: Cre recombinase monomer with Q311R mutation (protein)
chain: T1 chain with Q311R, L315W
[1]
  Median dimer activity (recombination on loxP): 68%
[2]
  Median dimer activity (recombination on loxP): 49%
[3]
  Median dimer activity (recombination on loxP): 37%
[4]
  Median dimer activity (recombination on loxP): 93%
[5]
  Median dimer activity (recombination on loxP): 96%
[6]
  Median dimer activity (recombination on loxP): 85%
[7]
  Median dimer activity (recombination on loxP): 90%
[8]
  Median dimer activity (recombination on loxP): 95%
